From the supplement of paper PMC9732359
± gives the uncertainty stated by the source.

Assay: protein stability index of a GFP-peptide fusion (yeast GPS) (PSI 1-4); higher = more stable; sorted into four equal gates, so the index is relative within each strain
Procedure, shortened: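 Sequencing reads from sorted gates were used to score each peptide. The library consisted of tiled 17-residue yeast protein peptides fused downstream of GFP on a Cherry-expressing plasmid, pooled and carried in yeast. Mid-log cultures in leucine-free medium were split into four equal gates by GFP/Cherry ratio, and each gate's plasmids were PCR-amplified and Illumina-sequenced. The protein stability index adds up, over all gates, the read frequency multiplied by the gate number.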

Row | Sequence | protein stability index (doa10∆) | protein stability index (pdr5∆) | protein stability index (ubr1∆) | protein stability index (san1∆)
1 | ANMATVPSTTNVNMTVN [MED6] | 2.92 ± 0.099 | 3.08 ± 0.084 | 2.93 ± 0.052 | –
2 | CVEISHISKIIGLDTQQ [RPN6] | 2.38 ± 0.17 | – | – | –
3 | MNLQNNVLNQIHQILLP [CSE2] | 2.73 ± 0.062 | 2.73 ± 0.071 | 3.21 ± 0.12 | 2.24 ± 0.12
4 | TSIGIKCNDGVVFAVEK [PRE10] | – | – | – | 2.61 ± 0.29
5 | SDPQMKVFDTLTRFSHD [RPN1] | – | 2.84 ± 0.15 | 2.94 ± 0.21 | 2.78 ± 0.18
6 | MTRSSVLADALNAINNA [RPS22A] | 2.86 ± 0.052 | 3.27 ± 0.056 | 2.99 ± 0.045 | 2.72 ± 0.054
7 | ALYIAMMTRRVVMAMYN [RET1] | 3.11 ± 0.28 | – | – | –
8 | NVKEITEKLKISPESVF [SMC3] | 1.7 ± 0.086 | 2.18 ± 0.069 | 2.04 ± 0.052 | 2.32 ± 0.13
9 | EFTENELNVDSMDVDDK [ITC1] | 3.18 ± 0.16 | 3.24 ± 0.19 | 3.25 ± 0.093 | 3.31 ± 0.11
10 | FVKVTKATLELLKLIEP [RPL7A] | 3.06 ± 0.11 | 2.87 ± 0.096 | 2.91 ± 0.13 | 2.62 ± 0.15
11 | WCQEAFPSSETTSLNPI [BRR2] | 3.23 ± 0.11 | 3.33 ± 0.097 | 3.23 ± 0.17 | 3.48 ± 0.11
12 | LNSYHIKNGRIYFTVPN [RGR1] | 2.57 ± 0.054 | 2.21 ± 0.035 | 2.33 ± 0.037 | 2.19 ± 0.056
13 | KKFNMGKEFEARNLIED [RPC53] | 2.81 ± 0.11 | 2.72 ± 0.087 | 2.56 ± 0.14 | 3.04 ± 0.083
14 | KAIPTFSFGKPFFSSNT [YIL149C/MLP2] | 3.07 ± 0.048 | 3.14 ± 0.046 | 3.011 ± 0.028 | 2.94 ± 0.035
15 | IIGKTTPISPDEEELGQ [RPB2] | – | – | 2.98 ± 0.29 | 2.81 ± 0.23
16 | GLIVNPVKVSGTIKKIE [POP5] | 2.41 ± 0.16 | 2.97 ± 0.19 | 2.26 ± 0.15 | 2.95 ± 0.12
17 | PSGRTRGRSVMKESVVE [ESC2] | – | – | 3.67 ± 0.22 | 2.99 ± 0.19
18 | MEGDDLFDEFGNLIGVD [SNU114] | 3.37 ± 0.2 | – | – | –
19 | SLEEIIAEGQKKFATVP [RPP2B] | 2.77 ± 0.061 | 2.89 ± 0.058 | 2.59 ± 0.04 | 2.93 ± 0.061
20 | YDNIDIQRGRILPTDGS [RPB7] | 3.05 ± 0.28 | 3.06 ± 0.18 | 2.94 ± 0.24 | –
21 | NGDLTVSLCAKNMGLVP [SSN2] | 2.22 ± 0.081 | 2.23 ± 0.079 | 2.17 ± 0.087 | 2.13 ± 0.091
22 | QLKAEEKKILNQFLKIK [SMC1] | 2.8 ± 0.045 | 3.19 ± 0.1 | 2.99 ± 0.078 | 2.84 ± 0.09
23 | RGFFHLNEALLQCPMLY [CSN12] | 2.06 ± 0.071 | 2.2 ± 0.058 | 1.99 ± 0.056 | 1.9 ± 0.13
24 | LSEYLTKFQTTDRESYP [YCS4] | – | 3.28 ± 0.2 | 2.94 ± 0.14 | –
25 | LDRISSYTAFSRLTLLL [PRP8] | 1.86 ± 0.047 | 1.59 ± 0.044 | 1.95 ± 0.035 | 1.93 ± 0.068
26 | AQFLRSVVHPGEMVGVL [RPO21] | 2.23 ± 0.081 | 1.93 ± 0.08 | 1.49 ± 0.054 | 2.3 ± 0.1
27 | SMILIQQTEKLNPQVAD [RPN2] | 1.53 ± 0.041 | 1.67 ± 0.044 | 1.63 ± 0.03 | 1.65 ± 0.073
28 | NVYVGMTDMQIQWYKSL [ISW2] | 1.96 ± 0.057 | 2.41 ± 0.059 | 3.14 ± 0.069 | 1.99 ± 0.072
29 | FISSNDAFNMLSLTTVP [SNF6] | 1.7 ± 0.054 | 2.44 ± 0.063 | 2 ± 0.06 | 2.31 ± 0.11
30 | ARTATVSKKWAAAAVCE [RPL14A] | 2.9 ± 0.089 | 3.21 ± 0.084 | 2.71 ± 0.066 | 3.58 ± 0.11
